Results: article PMC4663276

Legend:
[1] = target: TirM-TarP FL (full-length C. caviae GPIC TarP fused to TirM) (Chlamydia caviae strain GPIC)
[2] = target: TirM-ΔVBS1 (TarP VBD deleted for VBS1, Thr714-Arg832, fused to TirM) (Chlamydia caviae strain GPIC)

vinculin (natural protein) was tested, and the frequency of vinculin recruitment to Δtir EPEC-clustered TirM fusion at the plasma membrane of Cos7 cells (immunofluorescence), TarP-FL relative to TirM-TarP1-714 [1] was 3 fold and the frequency of vinculin recruitment to Δtir EPEC-clustered TirM fusion at the plasma membrane of Cos7 cells (immunofluorescence), decrease relative to WT VBD [2] was 1.6 fold.
